Test system: mutant form of α-Gal A expressed in HEK-293 cells
Test: HEK assay (GLP HEK / Migalastat Amenability Assay): α-Gal A activity in lysates of transiently transfected HEK-293 cells incubated with or without 10 μM migalastat
Format: cell-based, human
Details: for Absolute increase (% WT): 10 μM migalastat versus baseline; for Relative increase: 10 μM migalastat α-Gal A activity relative to baseline; for 10 μM migalastat α-Gal A activity (% WT): 5 days; for 10 μM migalastat α-Gal A activity (% WT) / Baseline α-Gal A activity (% WT): percentage of baseline wild-type α-Gal A activity; for 10 μM migalastat α-Gal A activity (% WT) / Baseline α-Gal A activity (% WT) / Baseline α-Gal A activity / 10 μM migalastat α-Gal A activity: mean ± SEM; for Baseline α-Gal A activity (% WT): absence of migalastat; for Baseline α-Gal A activity / 10 μM migalastat α-Gal A activity: lysates of HEK-293 cells transfected with the mutant form; for Baseline α-Gal A activity: incubated 5 days in the absence of migalastat; for 10 μM migalastat α-Gal A activity: incubated 5 days with 10 μM migalastat
Procedure: Such mutations or variants are also referred to herein as “HEK assay amenable” mutations or variants.
The α-Gal A activity is expressed as the nmoles of free 4-MU released per milligram of protein per hour (nmol/mg/hr).
In Table 7, values for the mean±standard error of the mean (SEM) were calculated. nmol/mg/hr indicates “nmoles of free 4-MU released per mg of protein per hour”. WT indicates “wild-type”. NC indicates “not calculable”. N/A indicates “not applicable”.

Molecule	Absolute increase (% WT)	Relative increase	10 μM migalastat α-Gal A activity (% WT)	Baseline α-Gal A activity (% WT)	Baseline α-Gal A activity [nmol/mg/h]	10 μM migalastat α-Gal A activity [nmol/mg/h]
A97T (protein) MQLRNPELHLGCALALRFLALVSWDIPGARALDNGLARTPTMGWLHWERFMCNLDCQEEPDSCISEKLFMEMAELMVSEGWKDAGYEYLCIDDCWMTPQRDSEGRLQADPQRFPHGIRQLANYVHSKGLKLGIYADVGNKTCAGFPGSFGYYDIDAQTFADWGVDLLKFDGCYCDSLENLADGYKHMSLALNRTGRSIVYSCEWPLYMWPFQKPNYTEIRQYCNHWRNFADIDDSWKSIKSILDWTSFNQERIVDVAGPGGWNDPDMLVIGNFGLSWNQQVTQMALWAIMAAPLFMSNDLRHISPQAKALLQDKDVIAINQDPLGKQGYQLRQGDNFEVWERPLSGLAWAVAMINRQEIGGPRSYTIAVASLGKGVACNPACFITQLLPVKRKLGFYEWTSRLRSHINPTGTVLLQLENTMQMSLKDLL	21.4	1.8	50.9 ± 2.7	29.4 ± 2.2	11157 ± 776	19875 ± 1502
Q99L (protein) MQLRNPELHLGCALALRFLALVSWDIPGARALDNGLARTPTMGWLHWERFMCNLDCQEEPDSCISEKLFMEMAELMVSEGWKDAGYEYLCIDDCWMAPLRDSEGRLQADPQRFPHGIRQLANYVHSKGLKLGIYADVGNKTCAGFPGSFGYYDIDAQTFADWGVDLLKFDGCYCDSLENLADGYKHMSLALNRTGRSIVYSCEWPLYMWPFQKPNYTEIRQYCNHWRNFADIDDSWKSIKSILDWTSFNQERIVDVAGPGGWNDPDMLVIGNFGLSWNQQVTQMALWAIMAAPLFMSNDLRHISPQAKALLQDKDVIAINQDPLGKQGYQLRQGDNFEVWERPLSGLAWAVAMINRQEIGGPRSYTIAVASLGKGVACNPACFITQLLPVKRKLGFYEWTSRLRSHINPTGTVLLQLENTMQMSLKDLL	27.4	1.4	93.4 ± 7.3	65.9 ± 5.1	23382 ± 1548	33479 ± 2746
Q99E (protein) MQLRNPELHLGCALALRFLALVSWDIPGARALDNGLARTPTMGWLHWERFMCNLDCQEEPDSCISEKLFMEMAELMVSEGWKDAGYEYLCIDDCWMAPERDSEGRLQADPQRFPHGIRQLANYVHSKGLKLGIYADVGNKTCAGFPGSFGYYDIDAQTFADWGVDLLKFDGCYCDSLENLADGYKHMSLALNRTGRSIVYSCEWPLYMWPFQKPNYTEIRQYCNHWRNFADIDDSWKSIKSILDWTSFNQERIVDVAGPGGWNDPDMLVIGNFGLSWNQQVTQMALWAIMAAPLFMSNDLRHISPQAKALLQDKDVIAINQDPLGKQGYQLRQGDNFEVWERPLSGLAWAVAMINRQEIGGPRSYTIAVASLGKGVACNPACFITQLLPVKRKLGFYEWTSRLRSHINPTGTVLLQLENTMQMSLKDLL	25.5	1.4	95.8 ± 7.9	70.3 ± 4.1	25264 ± 1668	34635 ± 3117
P98R (protein) MQLRNPELHLGCALALRFLALVSWDIPGARALDNGLARTPTMGWLHWERFMCNLDCQEEPDSCISEKLFMEMAELMVSEGWKDAGYEYLCIDDCWMARQRDSEGRLQADPQRFPHGIRQLANYVHSKGLKLGIYADVGNKTCAGFPGSFGYYDIDAQTFADWGVDLLKFDGCYCDSLENLADGYKHMSLALNRTGRSIVYSCEWPLYMWPFQKPNYTEIRQYCNHWRNFADIDDSWKSIKSILDWTSFNQERIVDVAGPGGWNDPDMLVIGNFGLSWNQQVTQMALWAIMAAPLFMSNDLRHISPQAKALLQDKDVIAINQDPLGKQGYQLRQGDNFEVWERPLSGLAWAVAMINRQEIGGPRSYTIAVASLGKGVACNPACFITQLLPVKRKLGFYEWTSRLRSHINPTGTVLLQLENTMQMSLKDLL	16.4	1.3	85.8 ± 5.8	69.4 ± 4	24969 ± 1730	31289 ± 2550
P98L (protein) MQLRNPELHLGCALALRFLALVSWDIPGARALDNGLARTPTMGWLHWERFMCNLDCQEEPDSCISEKLFMEMAELMVSEGWKDAGYEYLCIDDCWMALQRDSEGRLQADPQRFPHGIRQLANYVHSKGLKLGIYADVGNKTCAGFPGSFGYYDIDAQTFADWGVDLLKFDGCYCDSLENLADGYKHMSLALNRTGRSIVYSCEWPLYMWPFQKPNYTEIRQYCNHWRNFADIDDSWKSIKSILDWTSFNQERIVDVAGPGGWNDPDMLVIGNFGLSWNQQVTQMALWAIMAAPLFMSNDLRHISPQAKALLQDKDVIAINQDPLGKQGYQLRQGDNFEVWERPLSGLAWAVAMINRQEIGGPRSYTIAVASLGKGVACNPACFITQLLPVKRKLGFYEWTSRLRSHINPTGTVLLQLENTMQMSLKDLL	19.6	1.3	88.5 ± 6.3	69 ± 5.5	24223 ± 1555	31835 ± 2399
Q99P (protein) MQLRNPELHLGCALALRFLALVSWDIPGARALDNGLARTPTMGWLHWERFMCNLDCQEEPDSCISEKLFMEMAELMVSEGWKDAGYEYLCIDDCWMAPPRDSEGRLQADPQRFPHGIRQLANYVHSKGLKLGIYADVGNKTCAGFPGSFGYYDIDAQTFADWGVDLLKFDGCYCDSLENLADGYKHMSLALNRTGRSIVYSCEWPLYMWPFQKPNYTEIRQYCNHWRNFADIDDSWKSIKSILDWTSFNQERIVDVAGPGGWNDPDMLVIGNFGLSWNQQVTQMALWAIMAAPLFMSNDLRHISPQAKALLQDKDVIAINQDPLGKQGYQLRQGDNFEVWERPLSGLAWAVAMINRQEIGGPRSYTIAVASLGKGVACNPACFITQLLPVKRKLGFYEWTSRLRSHINPTGTVLLQLENTMQMSLKDLL	19.1	3.3	28 ± 2.4	8.8 ± 1.2	3034 ± 340	9885 ± 794
P98H (protein) MQLRNPELHLGCALALRFLALVSWDIPGARALDNGLARTPTMGWLHWERFMCNLDCQEEPDSCISEKLFMEMAELMVSEGWKDAGYEYLCIDDCWMAHQRDSEGRLQADPQRFPHGIRQLANYVHSKGLKLGIYADVGNKTCAGFPGSFGYYDIDAQTFADWGVDLLKFDGCYCDSLENLADGYKHMSLALNRTGRSIVYSCEWPLYMWPFQKPNYTEIRQYCNHWRNFADIDDSWKSIKSILDWTSFNQERIVDVAGPGGWNDPDMLVIGNFGLSWNQQVTQMALWAIMAAPLFMSNDLRHISPQAKALLQDKDVIAINQDPLGKQGYQLRQGDNFEVWERPLSGLAWAVAMINRQEIGGPRSYTIAVASLGKGVACNPACFITQLLPVKRKLGFYEWTSRLRSHINPTGTVLLQLENTMQMSLKDLL	22.5	1.4	83.4 ± 4.6	60.8 ± 3.1	21896 ± 1232	29920 ± 1808
